This passage reports Km and kcat results from US8129592B2, “Plant isoflavonoid hydroxylases and methods of use thereof” (The Samuel Roberts Noble Foundation, Inc., priority 2003, dated 2012).

Substrate in data set [1]: COc1ccc(-c2coc3cc(O)ccc3c2=O)cc1
Nature of the data set: Hydroxylase assay with yeast microsomes expressing recombinant MtCYP81E9 (I3′H). The data set is classed as biochemical, Medicago truncatula. The following applies: other: 2 mM NADPH and pH 8.0, 25.0 °C.

Substrate in data set [2]: COc1ccc(-c2coc3cc(O)cc(O)c3c2=O)cc1
The data set is described as above. The data set is classed as biochemical, Medicago truncatula. The following applies: other: 2 mM NADPH and pH 8.0, 25.0 °C.

B1: I3′H (MtCYP81E9) (Medicago truncatula) (protein)
chain: MTLFYYSLLSLSFIITIKILLKITSRRLKNLPPGPPTIPIIGNLHHLKHPLHRTFTTLSQTYGDIFSLWFGSRLVVVVSSPSLAHECFTKNDIILANRPRFLTGKYIFYNYTTLGSASYGDHWRNLRRITTIDVLSNNRLNSFLGVRRDETNRLIQKLLKDVVSEGFGFTKVELRPRLTEMTFNAMMRMISGKRYYGDDGDVSDVEEAKQFREIISEMMSLLGANNKGDFLPLLRVVDLDNLEKRCKRIAKRSNAFLEGLIEEHRRGNIHSDGGTMIDHLLKLSESQPEYYSDHLIKGLIQGMLLAGTDTSAVTIEWVMSELLNHPEVLKKAKEELDTQIGKNKLVDEQDLSKLPYLQNIISETLRLHPPAPLLLPHYSSEDCTIGEFNVPKDTIILTNVWGIHRDPKHWNDALSFKPERFEKEEEVNKVMAFGLGRRACPGLSLAQRTVGFTVGLLIQCFEWERESEEKLDMMEGKGITMPMKIPLRAMCKALPIANDVTK
notes: made in house; host or cells: Saccharomyces cerevisiae WAT11, vector YeDP60; microsomal fraction
For the protein B1, in data set [1], the Km was 49.7 µM and the kcat turned out to be 0.028 s⁻¹. Besides, in data set [2], the Km was 112.6 µM and the catalytic constant (kcat) was 0.1 s⁻¹.
